# According to the DeepSol protein solubility set:
# Assay: soluble on expression in E. coli; label from the status in PepcDB or PDB records
row,Sequence,soluble on expression in E. coli
1,MKLVPDAFHPGYWGPLLSAHMPRTAYLPVSESFISALQRDSLNEADAERLQSDFSELIQGLSHAMDYLRTDHSTSEGFCPKLNGKLPYDAAWILGRHAPCCYTWNEAMMVLRASSRIHEPTRTSWQGSFCLVVQRWEQIHPANEFRCFISSCRVIAICQRHPDTPYPFLARERDRLVNAMVSFYETHVRPLHPAYAECILDCYLDDSQSVRTLGIDAWSDDALLLFEVSEMEALRAQAAAAFPGQHSDPDGHRQSEAPGEDATGATVSFRSVAQGFAAVPWGWSEKLPLELGDDFLRARIQRNASD,not soluble
2,MIAPQPPMHLSGRCVCPSDPQFVEEKGIQAEDLVIGALENAFQECDDVIGRELEASGQVGGCTALVAVFLQGKLYVANAGDSRAILVRRHEIRQLSSEFTPETERQRIQQLAFTYPELLAGEFTRLEFPRRLKGDDLGQKVLFRDHHMRGWSYKRVEKSDLKYPLIHGQGRQARLLGTLAVSRGLGDHQLRVLDTDIQLKPFLLSIPQVTVLDVHQLAVQEEDVVVMATDGLWDVLSNEQVALLVRSFLTGNQKDDPHRFSELAKMLIHNTQGKDNGATGEGQVSYDDVSVFVIPLHSQAQEGSGH,soluble
3,GSHMLHWGPKYWRSLHLYAIFFSDAPSWKEKYEAIQWILNFIESLPCTRCQHHAFSYLTKNPLTLNNSEDFQYWTFAFHNNVNNRLNKKIISWSEYKNIYEQSILK,soluble
4,MPFEKYTVPVSGRSDAAIEEELTRLRAELAAEYDLREVVHRFGESDFTFLSVLDSYALLDRIDPAAFVKDEQMPYWAEIWPAAVTLSRQIVETGELAGKSVLELGAGVGMASIAAARSGARVLCTDYSTEALRFVAYNAMKNRVPLDTARLDWRMVKGAEKFDAVIAADVLYERVNLLPIVTAIDALLAPGGAAYIADPRRRLADQFLELVHENGFEVAETRMFDAEGDQTVAVTIYKLQRLKALEHHHHHH,soluble
5,MKGFGMFRFRRTFVPQIDMRNCGVAALASVAKYYGSDYSLAHLRELAKTNKEGTTALGLVEAAKKIGFETRAIKAEMSLFEMEDVPYPFIAHVNKDGKLQHYYVIYKSTKDYLIIGDPDPSVKVTKMTKERFEKEWTGVTLFMGPEPS,not soluble
6,MSEFHSEISTLSPAPLWQFFDKICSIPHPSKHEEALAQYIINWATEQGFDVRRDPTGNVFIKKPATPGMENKKGVVLQAHIDMVPQKNEDTDHDFTKDPIQPYIDGEWVTAKGTTLGADNGIGMASCLAVLASKDIKHGPIEVLLTIDEEAGMTGAFGLEAGWLEGDILLNTDSEQEGEVYMGCAGGIDGAMTFDIKRDAIPTGFVTRQLTLKGLKGGHSGCDIHTGRGNANKLLGRFLAGHAQELDLRLVEFRGGSLRNAIPREAFVTVAVPAENQEKLAELFNYYTELLKAELGKVETGIVTFNEEIVTESQAFTAADQQRFIAALNACPNGVMRMSDEIEGVVETSLNVGVITTEENKVTVLCLIRSLIDSGRSQVESMLRSVAELAGAQVEFSGAYPGWKPDADSEIMAIFRDMYEGIYGHKPNIMVIHAGLECGLFKEPYPNMDMVSFGPTIKFPHSPDEKVKIDTVQLFWDQMVALLEAIPEKALEHHHHHH,soluble
7,NPSTTKAPLADYLAHLPLAEEERERLGESASFSELHARLAGAEGAAADAGGDPALASVRARLQLGTPELDDAEMFGVDAQGRTFLKISPPIRRTKVIPEPWRTNILVRGWRRLTGRSNPPKPKRALPRARWQ,not soluble
8,MEHDLNDMMVFLAVVETGSFTLAADRLGMPKANVSRKVSRLEKNLAVTLLERSTRSQHLTEAGRRYLAHCKRIHEELDLATASVCELFHSYTGELKIGASVASGQQVLRPALGKFMRQYPDLKVQLNLVNRRVDFIEEGFDVVIRIGQLNDSMLIAKKLGAINRKIFASPSYLAKQGNPDKVEQLTEHQLLIMNPLNISGNKDLKLPLTSTDHETFTLDCQPRLLVDDFSMLKQAIVDGLGIGVLPDYMCRQEVASGQLVNILPDWGMAKVDIYALYPKHRAKIPKVKAFIDFVSELYGEVL,not soluble
9,MKRYSTKHFKRILIANNVNIDIDLKTGIVAKNMAKKEKIEQVISMGGIMWEGLNSSLIKVDEALLKQQI,soluble
10,MTKDQNGTWEMESNENFEGYMKALDIDFATRKIAVRLTQTKIIVQDGDNFKTKTNSTFRNYDLDFTVGVEFDEHTKGLDGRNVKTLVTWEGNTLVCVQKGEKENRGWKQWVEGDKLYLELTCGDQVCRQVFKKK,soluble
11,VTRPRPPLGPAMAGAVDLSGIKQRAQQNAAASTDADRALSTPSGVTEITEANFEDEVIVRSDEVPVVVLLWSPRSEVCVDLLDTLSGLAAAAKGKWSLASVNVDVAPRVAQIFGVQAVPTVVALAAGQPISSFQGLQPADQLSRWVDSLLSATAGKLKGAASSEESTEVDPAVAQARQQLEDGDFVAARKSYQAILDANPGSVEAKAAIRQIEFLIRATAQRPDAVSVADSLSDDIDAAFAAADVQVLNQDVSAAFERLIALVRRTSGEERTRVRTRLIELFELFDPADPEVVAGRRNLANALY,not soluble
12,MDQKSSSPQPAAQAPETKQAFPRKFVLAALEQSSDDAGWANLGNFGNYLNKLQPDFDSRLYGYKKLSDLVKARTDLFVTEERQVPGSTQKALYLRAKLEHHHHHH,soluble
13,MKTALLLKTKSQPFDPYVEAFEKYGRDTAFIPVLRHKRVHEEQLRDKLKNVRKTYCGLIVTSQRVSETLDEALKQEDETERQKILMETPIFTVGPATDDSIRRLGFQQTHGKDCGRGEVLADLIEEWYTTTKQHKPLLFLVGEKHRDIIQRKLGDDRVDSLIVYATQELENTETQIKDTIRKHPTIDWIVAFSPTSICSLLNTFELKIATIGPTTGDYLKKLGTQPNVVSPAPNPESLASSIVAFDEENSS,soluble
14,MSLEITNPILTGFNPDPSLCRQGEDYYIATSTFEWFPGVRIYHSRDLKNWSLVSTPLDRVSMLDMKGNPDSGGIWAPCLSYADGKFWLLYTDVKIVDSPWKNGRNFLVTAPSIEGPWSEPIPMGNGGFDPSLFHDDDGRKYYIYRPWGPRHHSNPHNTIVLQAFDPQTGTLSPERKTLFTGTPLCYTEGAHLYRHAGWYYLMAAEGGTSYEHAVVVLRSKNIDGPYELHPDVTMMTSWHLPENPLQKSGHGSLLQTHTGEWYMAYLTSRPLRLPGVPLLASGGRGYCPLGRETGIARIEWRDGWPYVEGGKHAQLTVKGPQVAEQPAAVPGNWRDDFDASSLDPELQTLRIPFDDTLGSLTARPGFLRLYGNDSLNSTFTQSTVARRWQHFAFRAETRMEFSPVHFQQSAGLTCYYNSKNWSYCFVDYEEGQGRTIKVIQLDHNVPSWPLHEQPIPVPEHAESVWLRVDVDTLVYRYSYSFDGETWHTVPVTYEAWKLSDDYIGGRGFFTGAFVGLHCEDISGDGCYADFDYFTYEPVEGHHHHHH,not soluble
15,MPIRFLHTADLHLDSPLRTFGDLARERRRDFLKTFDRIVNLAIKREVDCILIAGDLFDSTSVGAETVGRVQDAFSRLAGRGVQVVLIPGTHDNIISAESVYSRYQFTGVHILREPAVDEPLRLDIRGEAVFFYGFAYRSDRSREALESMRRRSGDGIHVGLLHGSLKGNPEWEMRKKDIPFSVADLVALDLDYIALGHYHDAACLEEGGRVIACYPGSPEGKKFGENGPRYALIVEVAPGNASVERVEVQTRIIREFNVDASLFAEPAALEAELARLGTSDTVGRIRLCGTVEEPLDTANLSGRVKGNFAWLELVDETDLYNSGHVKRMEREDSIRGLFIRKIHERYDAAGSDAERELCRDALRLVMGRFSRGGGN,not soluble
16,MKENIEKLFQAIAQKNPIHSKYLKKIEFSQEDEEEFDKLISYYIQDGISIKEQCDCYLLILNDTLEETKFFIENGAYRYSSFDEVKDKVYFNESYMKQYMIGLALSSFVWIAHIKVRKYFSQYLQNFTPKTTYFEIGPGHGEYFARAVKSGKFSAFYGLDISPTSCELTQKMVKQQVGGLITKCDFLCQDFFTYDFDKKADLIVIGEVLEHVEKPLEFLKRSKELLSDGGEIFATIPINAPAIDHIYLFSHPDEVKDLIEKSGLKFKAYECFMANDYSLEKALKFKNAITMAVVLNALEHHHHHH,soluble
17,MGSDKIHHHHHHMEASFDIALASAYVNAHMYSQGLHVSRVAAKDSDFQGVSEKRYEIKDPKEMSRLIKKIGALFGSPLVRIVKLNPEWSYEHAPGDGRGYKYGEPVDIPEHWQYGIIMGIPLSWETREGAPSFFHTFEGYGNASMHCARMAEFVKKLGYPARENSPHARYEYIMPPHMVAAGIGEQGRLGVVVTPEFGPNFRPSMVVTNMPLEPDKPIDVGIRKFCMNCKICADQCPSGSISFDGPKEINGRGYDGWQINASTCHNFWMSVPNGGCRVCLAVCPFSKESNWLHTTARDIAVRERTGITASTLTWMEKAFYGVNTPEHYHYKEGTRQFDYLVGEKPWFFESKDFLKEN,not soluble
18,MQDRNFDDIAEKFSRNIYGTTKGQLRQAILWQDLDRVLEEIGGRKLRVLDAGGGEGQTAIKMAERGHQVTLCDLSGEMIARARQAAEAKGVSKDMHFIQCPAQDVASHLESPVDLILFHAVLEWVADPVGVLETLWSVLRPGGALSLMFYNANGLLMHNMVAGNFDYVQAGMPKRKKRTLSPDYPRDPAQVYQWLEAIGWQITGKTGVRVFHDYLREKHQQRDCYETLVELETRYCRQEPYISLGRYIHVTAIKSPALAADARITYE,not soluble
19,MSLIGETINKLKVIKESSKRDKSRCKMYECLCECGEVIIVRSSTLRQGKIKSCGCESNKIHSELMRERNTTHGLSSNPMYQRWLGMKQRCYDVNAINYKNYGGRGIEICEEWKNDFKKFYDYMGDPPNENYQIDRINNDGNYEPGNVKWSTRSENSTNIRKKSTHNIYKKSNNVYNIQIVRKNKVKYFSAKSLEEAIELRDNVINKYNETGEGHHHHHH,not soluble
20,MAHHHHHHMEAKFLKLRQEREEQRRHRSKKTGAITLQRQQYEAEAELLEAEVMQLLQEGNVTESQQRIDALRTLVQDTSNSISLTAHEMAKANVILARLQQRVDEKCSGAAPKKFKFSSRLKAKPTSDAEPATPSFSPTGTSDTNEATATATVPIAGTVSSTNGFGNVYGPSTGTDLFISHSKGVFINGCADCAIYCLPIAGSAFLSNCTNCRVYVACHQLRLKGCTNLDLYVWCASTPIIEECDAMRFGPYRCWVGLLSSCTEDGKTYATHAEWVSRVGEIEDTARTEQNYVKVDDFQWVKKRASPHWCVLAREEERASTTVFGPATLPSSSTAHSTVAADH,not soluble
21,MTIATSVAGSSENFAELFNESLSHKEMRVGEVITAEIIRVDYNFVVVNAGLKSESYIPIEEFKNDRGEIEAREGDFVSVAIEALENGFGETRLSRDKAKRLNAWYELEEAMEKGKIVTGMVNGKVKGGLTATINGIRAFLPGSLVDIRPVKDMTPYENKEMEFKVIKLDRKRNNVVVSRRAVLEETQGADRDELLASLQDGAVVQGIVKNITDYGAFVDLGGIDGLLHITDLAWRRVKHPTEVINVGDEVTAKVLKFDQEKNRVSLGLKQLTEDPWIGLSRRYPQGTRIFGKVTNMTDYGAFVEIEQGIEGLVHVSEMDWTNKNVYPSKIVQLGDEVEVMILEIDEDRRRISLGMKQCRPNPWEEFSLSHEKGDKVTGQIKSITDFGLFIGLPGNIDGLVHLSDLSWNQPGEKAISEFKKGDEVEAVVLSIDVEKERISLGIKQLEGDPFNIYVASHDKNSIVKGTVKSVDAKGAVIALTDEVEGYLRASEFSRDKIEDIRSRVNEGDEIEAMIINIDRKNRSISLSVKARIQDEEDKAVKSLASVSNPASAGTTNLGALLKAKIDSKSSEELEHHHHHH,soluble
